# Measured values reported in patent US20210371519A1 (UNIVERSITY OF CINCINNATI, published 2021).
# T1: human FcεRIα (alpha chain of the high affinity IgE receptor FcεRI) (human, UniProt P12319 26-257)
# T1 construct: whole, on cells; also called huFcεRIα; hu FcεRIα
# T1 sequence (looked up): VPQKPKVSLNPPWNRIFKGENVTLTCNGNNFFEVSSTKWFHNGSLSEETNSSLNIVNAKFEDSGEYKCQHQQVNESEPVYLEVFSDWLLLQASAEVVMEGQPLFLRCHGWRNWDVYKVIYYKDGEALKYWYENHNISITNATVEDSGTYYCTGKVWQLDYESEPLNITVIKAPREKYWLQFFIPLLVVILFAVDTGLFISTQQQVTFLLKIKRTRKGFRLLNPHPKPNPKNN
# B1: IE7 anti-huFcεRIα mAb (mouse IgG1, hybridoma ATCC PTA-125115) (antibody, V domains shown)
# VH: QVQLQESGGDVVKPGGSLKLSCAASGFTFSFYGMSWVRQTPDKKLEWVATISGGGNYTYYPDSVKGRFTISRDNAMNTLYLQMNSLKSEDTAMYYCVRAYYGNWNSYWGQGTLVTVS
# VL: DIVMTQTPSSMYASLGERVTITCKASQDINNYLSWFQQKPGRSPKTLIYRANRLMDGVPSRIRGSGSGQDYSLTISSLEYEDMGIYYCLLYNEFPWMFGGGTKLEIKR
# notes: Original hybridoma antibody, mouse IgG1; also called mAb IE7
# Target: T1, human FcεRIα (alpha chain of the high …)
# Assay: not described
binder,measurement,value
B1,binding result,binds
